From article PMC3136518, “Single-Molecule Fluorescence Polarization Study of Conformational Change in Archaeal Group II Chaperonin” (PLoS ONE, 2011)

Target: the molecule itself
Experiment: rotary-shadowing electron microscopy; chaperonin (50 µg/mL) directly immobilised on plasma-cleaned coverslip, washed with HKM buffer [25 mM HEPES-KOH (pH 7.4), 100 mM KCl, 5 mM MgCl2] and 50% glycerol, shadowed at 5° with platinum and carbon; coverslip without chaperonin as negative control

B1: αD263C/Q271C/C366S-His, the double-cysteine mutant of Thermococcus sp. strain KS-1 (T. KS-1) α chaperonin with internal hexahistidine tags (complex, UniProt P61112 1-548, looked up)
chain: MAQLSGQPVVILPEGTQRYVGRDAQRLNILAARIIAETVRTTLGPKGMDKMLVDSLGDIVVTNDGATILDKIDLQHPAAKMMVEVAKTQDKEAGDGTTTAVVIAGELLRKAEELLDQNIHPSIIIKGYALAAEKAQEILDEIAIRVDPDDEETLLKIAATSITGKNAESHKELLAKLAVEAVKQVAEKKDGKYVVDLDNIKFEKKAGEGVEESELVRGVVIDKEVVHPRMPKRVENAKIALINEALEVKKTETDAKINITSPCQLMSFLECEEKMLKDMVDHIAQTGANVVFVQKGIDDLAQHYLAKYGIMAVRRVKKSDMEKLAKATGAKIVTNVKDLTPEDLGYAEVVEERKLAGENMIFVEGSKNPKAVTILIRGGTEHVIDEVERALEDAVKVVKDVMEDGAVLPAGGAPEIELAIRLDEYAKQVGGKEALAIENFADALKIIPKTLAENAGLDTVEMLVKVISEHKNRGLGIGIDVFEGKPADMLEKGIIEPLRVKKQAIKSASEAAIMILRIDDVIAAKATKPEGGQGGGMPGGMGGMDMGM
notes: Group II chaperonin (thermosome) α subunit of Thermococcus sp. strain KS-1, amino acids 1-548, the entire α subunit amplified from plasmid pK1Eα2; hexa-histidine inserted between Val146 and Asp147; Homo-oligomeric double ring; The results call the sample of the electron microscopy BSR-CPN (cysteines 263 and 271 cross-linked by BSR, about 0.3 dye per hexadecamer); the methods name the unlabelled …
  binding result: binds
